According to IntAct's records for PubMed 31515488:

B1: Protein dispatched homolog 1 (Homo sapiens), Q96F81 (parent)
chain: MAMSNGNNDFVVLSNSSIATSAANPSPLTPCDGDHAAQQLTPKEATRTKVSPNGCLQLNGTVKSSFLPLDNQRMPQMLPQCCHPCPYHHPLTSHSSHQECHPEAGPAAPSALASCCMQPHSEYSASLCPNHSPVYQTTCCLQPSPSFCLHHPWPDHFQHQPVQQHIANIRPSRPFKLPKSYAALIADWPVVVLGMCTMFIVVCALVGVLVPELPDFSDPLLGFEPRGTAIGQRLVTWNNMVKNTGYKATLANYPFKYADEQAKSHRDDRWSDDHYEREKREVDWNFHKDSFFCDVPSDRYSRVVFTSSGGETLWNLPAIKSMCNVDNSRIRSHPQFGDLCQRTTAASCCPSWTLGNYIAILNNRSSCQKIVERDVSHTLKLLRTCAKHYQNGTLGPDCWDMAARRKDQLKCTNVPRKCTKYNAVYQILHYLVDKDFMTPKTADYATPALKYSMLFSPTEKGESMMNIYLDNFENWNSSDGVTTITGIEFGIKHSLFQDYLLMDTVYPAIAIVIVLLVMCVYTKSMFITLMTMFAIISSLIVSYFLYRVVFHFEFFPFMNLTALIILVGIGADDAFVLCDVWNYTKFDKPHAETSETVSITLQHAALSMFVTSFTTAAAFYANYVSNITAIRCFGVYAGTAILVNYVLMVTWLPAVVVLHERYLLNIFTCFKKPQQQIYDNKSCWTVACQKCHKVLFAISEASRIFFEKVLPCIVIKFRYLWLFWFLALTVGGAYIVCINPKMKLPSLELSEFQVFRSSHPFERYDAEYKKLFMFERVHHGEELHMPITVIWGVSPEDNGNPLNPKSKGKLTLDSSFNIASPASQAWILHFCQKLRNQTFFYQTDEQDFTSCFIETFKQWMENQDCDEPALYPCCSHWSFPYKQEIFELCIKRAIMELERSTGYHLDSKTPGPRFDINDTIRAVVLEFQSTYLFTLAYEKMHQFYKEVDSWISSELSSAPEGLSNGWFVSNLEFYDLQDSLSDGTLIAMGLSVAVAFSVMLLTTWNIIISLYAIISIAGTIFVTVGSLVLLGWELNVLESVTISVAVGLSVDFAVHYGVAYRLAPDPDREGKVIFSLSRVGSAMAMAALTTFVAGAMMMPSTVLAYTQLGTFMMLIMCISWAFATFFFQCMCRCLGPQGTCGQIPLPKKLQCSAFSHALSTSPSDKGQSKTHTINAYHLDPRGPKSELEHEFYELEPLASHSCTAPEKTTYEETHICSEFFNSQAKNLGMPVHAAYNSELSKSTESDAGSALLQPPLEQHTVCHFFSLNQRCSCPDAYKHLNYGPHSCQQMGDCLCHQCSPTTSSFVQIQNGVAPLKATHQAVEGFVHPITHIHHCPCLQGRVKPAGMQNSLPRNFFLHPVQHIQAQEKIGKTNVHSLQRSIEEHLPKMAEPSSFVCRSTGSLLKTCCDPENKQRELCKNRDVSNLESSGGTENKAGGKVELSLSQTDASVNSEHFNQNEPKVLFNHLMGEAGCRSCPNNSQSCGRIVRVKCNSVDCQMPNMEANVPAVLTHSELSGESLLIKTL
partner: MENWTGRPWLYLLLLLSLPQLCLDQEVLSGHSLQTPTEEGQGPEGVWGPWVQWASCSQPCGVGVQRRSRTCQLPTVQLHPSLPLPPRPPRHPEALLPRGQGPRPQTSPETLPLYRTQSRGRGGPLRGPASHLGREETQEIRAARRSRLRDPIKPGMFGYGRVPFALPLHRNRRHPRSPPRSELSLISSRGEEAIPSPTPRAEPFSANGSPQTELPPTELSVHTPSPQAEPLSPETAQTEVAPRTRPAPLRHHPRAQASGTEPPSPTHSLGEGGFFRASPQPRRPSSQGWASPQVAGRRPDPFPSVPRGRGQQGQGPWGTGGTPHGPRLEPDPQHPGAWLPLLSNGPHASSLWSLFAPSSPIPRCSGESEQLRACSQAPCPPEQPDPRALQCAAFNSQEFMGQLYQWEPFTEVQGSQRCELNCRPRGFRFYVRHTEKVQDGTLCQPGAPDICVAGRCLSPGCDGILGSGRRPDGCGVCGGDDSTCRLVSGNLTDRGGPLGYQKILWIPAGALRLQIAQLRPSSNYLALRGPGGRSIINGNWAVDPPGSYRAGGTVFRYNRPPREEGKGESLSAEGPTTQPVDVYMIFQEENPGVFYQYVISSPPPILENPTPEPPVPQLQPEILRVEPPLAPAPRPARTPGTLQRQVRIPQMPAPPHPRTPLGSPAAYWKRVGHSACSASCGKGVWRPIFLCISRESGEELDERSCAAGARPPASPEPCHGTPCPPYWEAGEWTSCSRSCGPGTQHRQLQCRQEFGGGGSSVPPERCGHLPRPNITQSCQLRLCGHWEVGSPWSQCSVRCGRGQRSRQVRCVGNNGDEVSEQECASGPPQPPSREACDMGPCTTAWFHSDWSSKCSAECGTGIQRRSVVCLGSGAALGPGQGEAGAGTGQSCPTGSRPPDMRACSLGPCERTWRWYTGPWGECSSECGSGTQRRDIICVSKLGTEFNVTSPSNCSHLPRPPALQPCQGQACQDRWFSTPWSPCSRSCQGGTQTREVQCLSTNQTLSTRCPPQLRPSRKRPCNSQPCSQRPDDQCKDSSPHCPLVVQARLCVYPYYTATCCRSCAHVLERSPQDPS
B2: Zinc finger CCHC domain-containing protein 10 (Homo sapiens), Q8TBK6 (parent)
chain: MATPMHRLIARRQAFDTELQPVKTFWILIQPSIVISEANKQHVRCQKCLEFGHWTYECTGKRKYLHRPSRTAELKKALKEKENRLLLQQSIGETNVERKAKKKRSKSVTSSSSSSSDSSASDSSSESEETSTSSSSEDSDTDESSSSSSSSASSTTSSSSSDSDSDSSSSSSSSTSTDSSSDDEPPKKKKKK
B3: "Delta(3,5)-Delta(2,4)-dienoyl-CoA isomerase, mitochondrial" (Homo sapiens), Q13011 (parent)
chain: MAAGIVASRRLRDLLTRRLTGSNYPGLSISLRLTGSSAQEEASGVALGEAPDHSYESLRVTSAQKHVLHVQLNRPNKRNAMNKVFWREMVECFNKISRDADCRAVVISGAGKMFTAGIDLMDMASDILQPKGDDVARISWYLRDIITRYQETFNVIERCPKPVIAAVHGGCIGGGVDLVTACDIRYCAQDAFFQVKEVDVGLAADVGTLQRLPKVIGNQSLVNELAFTARKMMADEALGSGLVSRVFPDKEVMLDAALALAAEISSKSPVAVQSTKVNLLYSRDHSVAESLNYVASWNMSMLQTQDLVKSVQATTENKELKTVTFSKL
B4: UPF0462 protein C4orf33 (Homo sapiens), Q8N1A6 (parent)
chain: MDFKIEHTWDGFPVKHEPVFIRLNPGDRGVMMDISAPFFRDPPAPLGEPGKPFNELWDYEVVEAFFLNDITEQYLEVELCPHGQHLVLLLSGRRNVWKQELPLSFRMSRGETKWEGKAYLPWSYFPPNVTKFNSFAIHGSKDKRSYEALYPVPQHELQQGQKPDFHCLEYFKSFNFNTLLGEEWKQPESDLWLIEKCDI
B5: TBC1 domain family member 22B (Homo sapiens), Q9NU19 (parent)
chain: MAAENSKQFWKRSAKLPGSIQPVYGAQHPPLDPRLTKNFIKERSKVNTVPLKNKKASSFHEFARNTSDAWDIGDDEEEDFSSPSFQTLNSKVALATAAQVLENHSKLRVKPERSQSTTSDVPANYKVIKSSSDAQLSRNSSDTCLRNPLHKQQSLPLRPIIPLVARISDQNASGAPPMTVREKTRLEKFRQLLSSQNTDLDELRKCSWPGVPREVRPITWRLLSGYLPANTERRKLTLQRKREEYFGFIEQYYDSRNEEHHQDTYRQIHIDIPRTNPLIPLFQQPLVQEIFERILFIWAIRHPASGYVQGINDLVTPFFVVFLSEYVEEDVENFDVTNLSQDMLRSIEADSFWCMSKLLDGIQDNYTFAQPGIQKKVKALEELVSRIDEQVHNHFRRYEVEYLQFAFRWMNNLLMRELPLRCTIRLWDTYQSEPEGFSHFHLYVCAAFLIKWRKEILDEEDFQGLLMLLQNLPTIHWGNEEIGLLLAEAYRLKYMFADAPNHYRR
B6: Notch homolog 2 N-terminal-like protein A (Homo sapiens), Q7Z3S9 (parent)
chain: MCVTYHNGTGYCKCPEGFLGEYCQHRDPCEKNRCQNGGTCVAQAMLGKATCRCASGFTGEDCQYSTSHPCFVSRPCLNGGTCHMLSRDTYECTCQVGFTGKECQWTDACLSHPCANGSTCTTVANQFSCKCLTGFTGQKCETDVNECDIPGHCQHGGTCLNLPGSYQCQCLQGFTGQYCDSLYVPCAPSPCVNGGTCRQTGDFTFECNCLPETVRRGTELWERDREVWNGKEHDEN
partner: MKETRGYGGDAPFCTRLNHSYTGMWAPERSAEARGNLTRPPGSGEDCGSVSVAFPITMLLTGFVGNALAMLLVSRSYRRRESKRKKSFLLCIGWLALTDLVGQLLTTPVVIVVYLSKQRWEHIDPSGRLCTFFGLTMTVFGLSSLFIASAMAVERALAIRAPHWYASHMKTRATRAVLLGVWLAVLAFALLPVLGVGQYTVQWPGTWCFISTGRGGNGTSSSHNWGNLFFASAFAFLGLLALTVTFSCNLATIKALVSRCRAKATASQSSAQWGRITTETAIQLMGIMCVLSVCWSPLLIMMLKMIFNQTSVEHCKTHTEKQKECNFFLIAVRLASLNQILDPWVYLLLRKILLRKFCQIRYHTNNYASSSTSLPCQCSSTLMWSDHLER
B7: Ligand of Numb protein X 2 (Homo sapiens), Q8N448 (parent)
chain: MGTTSDEMVSVEQTSSSSLNPLCFECGQQHWTRENHLYNYQNEVDDDLVCHICLQPLLQPLDTPCGHTFCYKCLRNFLQEKDFCPLDRKRLHFKLCKKSSILVHKLLDKLLVLCPFSSVCKDVMQRCDLEAHLKNRCPGASHRRVALERRKTSRTQAEIENENGPTLLDPAGTLSPEADCLGTGAVPVERHLTSASLSTWSEEPGLDNPAFEESAGADTTQQPLSLPEGEITTIEIHRSNPYIQLGISIVGGNETPLINIVIQEVYRDGVIARDGRLLAGDQILQVNNYNISNVSHNYARAVLSQPCNTLHLTVLRERRFGNRAHNHSDSNSPREEIFQVALHKRDSGEQLGIKLVRRTDEPGVFILDLLEGGLAAQDGRLSSNDRVLAINGHDLKYGTPELAAQIIQASGERVNLTIARPGKPQPGNTIREAGNHSSSSQHHTPPPYYSRPSSHKDLTQCVTCQEKHITVKKEPHESLGMTVAGGRGSKSGELPIFVTSVPPHGCLARDGRIKRGDVLLNINGIDLTNLSHSEAVAMLKASAASPAVALKALEVQIVEEATQNAEEQPSTFSENEYDASWSPSWVMWLGLPSTLHSCHDIVLRRSYLGSWGFSIVGGYEENHTNQPFFIKTIVLGTPAYYDGRLKCGDMIVAVNGLSTVGMSHSALVPMLKEQRNKVTLTVICWPGSLV
partner: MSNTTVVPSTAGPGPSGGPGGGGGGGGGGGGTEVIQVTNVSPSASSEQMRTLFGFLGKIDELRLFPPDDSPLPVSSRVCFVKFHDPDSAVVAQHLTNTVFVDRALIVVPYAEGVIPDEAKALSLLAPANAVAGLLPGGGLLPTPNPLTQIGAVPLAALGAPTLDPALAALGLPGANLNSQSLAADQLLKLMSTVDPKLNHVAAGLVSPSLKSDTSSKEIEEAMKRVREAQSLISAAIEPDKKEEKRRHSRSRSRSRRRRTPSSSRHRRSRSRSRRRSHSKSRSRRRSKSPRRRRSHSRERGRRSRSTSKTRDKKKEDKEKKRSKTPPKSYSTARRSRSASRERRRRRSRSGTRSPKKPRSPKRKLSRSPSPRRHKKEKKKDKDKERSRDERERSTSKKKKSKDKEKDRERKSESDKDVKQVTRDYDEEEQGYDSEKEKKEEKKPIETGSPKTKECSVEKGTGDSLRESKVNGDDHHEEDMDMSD

Variants of: B1
Conditions: with atl4_human ADAMTSL4, Q6UY14

Variant	effect of a mutation on the interaction
E103D	with no effect
E103K	with no effect

Variants of: B2
Conditions: with cep70_human CEP70, Q8NHQ1
Chain of cep70_human CEP70, Q8NHQ1 (Q8NHQ1 whole entry): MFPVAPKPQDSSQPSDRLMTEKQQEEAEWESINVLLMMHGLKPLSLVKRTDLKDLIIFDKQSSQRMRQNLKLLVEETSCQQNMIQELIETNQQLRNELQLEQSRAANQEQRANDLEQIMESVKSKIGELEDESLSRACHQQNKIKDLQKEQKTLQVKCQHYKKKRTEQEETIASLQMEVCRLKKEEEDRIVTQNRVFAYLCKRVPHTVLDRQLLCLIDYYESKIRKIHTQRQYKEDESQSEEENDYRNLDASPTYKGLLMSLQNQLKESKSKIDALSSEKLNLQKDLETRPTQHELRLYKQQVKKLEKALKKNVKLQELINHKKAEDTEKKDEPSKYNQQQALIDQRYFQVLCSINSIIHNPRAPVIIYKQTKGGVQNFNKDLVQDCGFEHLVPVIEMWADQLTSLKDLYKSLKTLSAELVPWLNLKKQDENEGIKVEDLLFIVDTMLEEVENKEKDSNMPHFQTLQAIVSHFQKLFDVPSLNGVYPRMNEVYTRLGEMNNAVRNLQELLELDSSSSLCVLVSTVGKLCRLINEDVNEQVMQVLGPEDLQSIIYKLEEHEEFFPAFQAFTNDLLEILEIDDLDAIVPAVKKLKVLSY

Variant	effect of a mutation on the interaction
S153P	with no effect

Variants of: B2
Conditions: with dzip3_human DZIP3, Q86Y13
Chain of dzip3_human DZIP3, Q86Y13 (Q86Y13 whole entry): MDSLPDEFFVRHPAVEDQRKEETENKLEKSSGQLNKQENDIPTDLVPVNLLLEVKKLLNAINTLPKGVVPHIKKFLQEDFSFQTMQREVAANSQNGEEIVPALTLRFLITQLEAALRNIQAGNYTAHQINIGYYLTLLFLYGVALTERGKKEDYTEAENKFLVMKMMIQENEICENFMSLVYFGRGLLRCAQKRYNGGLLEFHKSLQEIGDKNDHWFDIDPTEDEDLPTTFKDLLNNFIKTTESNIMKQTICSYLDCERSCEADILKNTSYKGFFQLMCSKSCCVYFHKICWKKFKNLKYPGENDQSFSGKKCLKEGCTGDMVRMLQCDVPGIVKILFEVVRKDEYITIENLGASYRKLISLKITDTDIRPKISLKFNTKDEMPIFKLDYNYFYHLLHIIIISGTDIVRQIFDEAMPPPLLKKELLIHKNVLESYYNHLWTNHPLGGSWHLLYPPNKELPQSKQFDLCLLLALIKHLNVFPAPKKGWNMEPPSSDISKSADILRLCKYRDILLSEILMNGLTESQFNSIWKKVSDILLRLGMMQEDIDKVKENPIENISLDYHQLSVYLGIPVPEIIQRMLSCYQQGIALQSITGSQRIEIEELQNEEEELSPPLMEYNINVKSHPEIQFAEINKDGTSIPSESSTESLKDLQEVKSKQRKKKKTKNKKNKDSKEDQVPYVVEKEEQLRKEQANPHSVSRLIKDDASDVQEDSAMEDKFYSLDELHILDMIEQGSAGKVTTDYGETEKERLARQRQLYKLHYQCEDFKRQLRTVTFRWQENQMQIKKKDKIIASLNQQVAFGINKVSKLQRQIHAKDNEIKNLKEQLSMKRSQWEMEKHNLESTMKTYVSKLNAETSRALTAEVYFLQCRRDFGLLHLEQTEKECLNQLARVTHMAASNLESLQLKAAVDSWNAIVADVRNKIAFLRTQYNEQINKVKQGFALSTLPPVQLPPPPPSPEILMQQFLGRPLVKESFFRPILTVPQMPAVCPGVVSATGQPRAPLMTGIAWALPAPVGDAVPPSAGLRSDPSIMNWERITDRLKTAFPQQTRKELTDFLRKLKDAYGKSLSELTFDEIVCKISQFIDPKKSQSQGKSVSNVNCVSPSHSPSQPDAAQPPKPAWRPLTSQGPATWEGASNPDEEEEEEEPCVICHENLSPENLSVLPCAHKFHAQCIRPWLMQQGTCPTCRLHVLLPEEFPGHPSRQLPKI

Variant	effect of a mutation on the interaction
S153P	with no effect

Variants of: B3
Conditions: with traf1_human TRAF1, Q13077
Chain of traf1_human TRAF1, Q13077 (Q13077 whole entry): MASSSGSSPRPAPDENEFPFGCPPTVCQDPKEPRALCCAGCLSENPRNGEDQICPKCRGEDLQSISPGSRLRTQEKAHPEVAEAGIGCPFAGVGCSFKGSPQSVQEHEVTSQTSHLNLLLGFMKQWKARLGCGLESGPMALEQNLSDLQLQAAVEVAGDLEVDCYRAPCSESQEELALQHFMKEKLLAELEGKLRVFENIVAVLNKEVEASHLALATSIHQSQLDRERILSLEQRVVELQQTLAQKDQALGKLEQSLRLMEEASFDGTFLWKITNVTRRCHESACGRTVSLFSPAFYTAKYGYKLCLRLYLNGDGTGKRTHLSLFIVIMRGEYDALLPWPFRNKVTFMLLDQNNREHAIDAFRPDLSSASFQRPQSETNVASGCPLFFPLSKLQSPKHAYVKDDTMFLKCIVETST

Variant	effect of a mutation on the interaction
E41A	with no effect

Variants of: B4
Conditions: with vac14_human VAC14, Q08AM6
Chain of vac14_human VAC14, Q08AM6 (Q08AM6 whole entry): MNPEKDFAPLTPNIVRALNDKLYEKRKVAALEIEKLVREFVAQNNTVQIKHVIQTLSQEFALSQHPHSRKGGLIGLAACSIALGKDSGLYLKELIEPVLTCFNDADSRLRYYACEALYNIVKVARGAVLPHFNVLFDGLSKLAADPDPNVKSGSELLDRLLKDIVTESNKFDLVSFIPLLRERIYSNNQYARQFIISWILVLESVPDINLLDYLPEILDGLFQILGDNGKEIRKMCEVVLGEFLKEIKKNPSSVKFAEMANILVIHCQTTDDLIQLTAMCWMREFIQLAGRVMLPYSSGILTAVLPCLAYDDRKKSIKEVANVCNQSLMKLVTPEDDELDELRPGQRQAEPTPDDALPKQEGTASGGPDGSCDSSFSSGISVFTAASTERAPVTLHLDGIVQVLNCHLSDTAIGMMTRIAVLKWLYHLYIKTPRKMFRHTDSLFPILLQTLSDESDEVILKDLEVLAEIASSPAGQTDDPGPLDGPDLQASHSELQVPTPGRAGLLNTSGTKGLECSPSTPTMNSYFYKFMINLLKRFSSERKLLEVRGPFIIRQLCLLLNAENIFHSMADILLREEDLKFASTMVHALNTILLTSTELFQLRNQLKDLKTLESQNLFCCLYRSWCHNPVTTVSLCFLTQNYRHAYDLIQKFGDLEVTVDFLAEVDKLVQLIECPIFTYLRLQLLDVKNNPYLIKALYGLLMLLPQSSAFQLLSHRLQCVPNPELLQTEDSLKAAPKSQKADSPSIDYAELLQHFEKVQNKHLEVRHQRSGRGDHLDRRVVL

Variant	effect of a mutation on the interaction
H166R	with no effect

Variants of: B5
Conditions: with tri23_human TRIM23, P36406
Chain of tri23_human TRIM23, P36406 (P36406 whole entry): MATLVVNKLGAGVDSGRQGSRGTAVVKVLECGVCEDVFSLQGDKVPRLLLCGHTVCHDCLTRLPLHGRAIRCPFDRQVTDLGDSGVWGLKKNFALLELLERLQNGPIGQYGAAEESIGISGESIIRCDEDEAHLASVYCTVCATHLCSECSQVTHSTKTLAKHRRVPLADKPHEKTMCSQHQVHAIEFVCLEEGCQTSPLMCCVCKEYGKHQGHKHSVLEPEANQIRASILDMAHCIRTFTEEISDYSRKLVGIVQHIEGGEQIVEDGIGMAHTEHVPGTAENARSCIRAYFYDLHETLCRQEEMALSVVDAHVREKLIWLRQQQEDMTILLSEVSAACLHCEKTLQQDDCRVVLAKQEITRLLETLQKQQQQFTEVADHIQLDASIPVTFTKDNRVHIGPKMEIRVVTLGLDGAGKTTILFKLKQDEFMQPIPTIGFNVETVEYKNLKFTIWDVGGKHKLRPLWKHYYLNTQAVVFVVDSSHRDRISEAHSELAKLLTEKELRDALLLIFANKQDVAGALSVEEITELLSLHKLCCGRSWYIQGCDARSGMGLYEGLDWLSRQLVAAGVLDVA

Variant	effect of a mutation on the interaction
P177A	with no effect

Variants of: B5
Conditions: with ikzf3_human IKZF3, Q9UKT9
Chain of ikzf3_human IKZF3, Q9UKT9 (Q9UKT9 whole entry): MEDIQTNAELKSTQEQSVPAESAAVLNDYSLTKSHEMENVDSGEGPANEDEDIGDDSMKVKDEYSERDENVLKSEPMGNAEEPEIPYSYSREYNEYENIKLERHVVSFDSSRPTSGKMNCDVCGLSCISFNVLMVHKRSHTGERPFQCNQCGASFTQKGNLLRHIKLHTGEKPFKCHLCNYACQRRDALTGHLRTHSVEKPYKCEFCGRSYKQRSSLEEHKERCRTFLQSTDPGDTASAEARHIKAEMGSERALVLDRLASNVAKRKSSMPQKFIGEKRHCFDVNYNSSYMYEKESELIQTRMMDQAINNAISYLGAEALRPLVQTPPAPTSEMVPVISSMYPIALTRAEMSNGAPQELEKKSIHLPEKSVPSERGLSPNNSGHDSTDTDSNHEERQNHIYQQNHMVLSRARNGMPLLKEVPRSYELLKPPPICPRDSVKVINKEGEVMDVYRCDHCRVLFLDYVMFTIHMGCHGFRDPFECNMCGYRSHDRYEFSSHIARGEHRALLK

Variant	effect of a mutation on the interaction
P177A	with no effect

Variants of: B6
Conditions: with pe2r3_human PTGER3, P43115

Variant	effect of a mutation on the interaction
A115T	with no effect
R74Q	with no effect

Variants of: B7
Conditions: with srs11_human SRSF11, Q05519

Variant	effect of a mutation on the interaction
S141A	with no effect
